± gives the standard deviation of the averaged measurements.
B1: library; a variant is named by its letters at N, in order (parent)
chain: GCUGUCACCGGUGCUUGGUACGUUAUAUUCAGCCGGUCUGAUGAGUCUNNNNNNAGACGAAACAGC

Tests used:
[1] = variants of: B1; experiment: normalized RNA/DNA level without ligand (relative to sTRSVctl = 100) (log10 (% of sTRSVctl)); HEK293T overexpressing SLC46A1; higher = less ribozyme self-cleavage, higher mRNA level; details: without (6R,S)-folinic acid; ligand present: no
In short: (§1)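 Total RNA, extracted with EDTA 72 h after HEK293T cells were transfected with 4 µg per 6-well well of reporter-linked ribozyme switch library plasmids, was reverse-transcribed, amplified, barcoded and sequenced. Ligand, if used, was added 1 h before transfection. RNA level was derived from RNA reads divided by DNA reads and normalized to a spiked-in non-cleaving sequence or to the top sequences. This was multiplied by 100 and log10-transformed, with the top set of 25 sequences and a ≥100 DNA read minimum.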

[2] = variants of: B1; experiment: normalized RNA/DNA level with ligand (relative to sTRSVctl = 100) (log10 (% of sTRSVctl)); HEK293T overexpressing SLC46A1; ligand concentration (+) RNA-Seq: 6 mM; higher = less ribozyme self-cleavage, higher mRNA level; details: with (6R,S)-folinic acid; ligand present: yes
In short: as §1

Row | Variant | normalized RNA/DNA level without ligand (log10) [1] | normalized RNA/DNA level with ligand (log10) [2]
1 | AGGAAA | 1.942 ± 0.0081 | 1.99 ± 0.04
2 | UGCUCC | 2.062 ± 0.0087 | 2.03 ± 0.081
3 | UGCUCA | 1.982 ± 0.006 | 1.988 ± 0.013
4 | CGGUAC | 2.0071 ± 0.0016 | 1.992 ± 0.0076
5 | CGGUAU | 1.976 ± 0.0076 | 2.003 ± 0.013
6 | CGGUAG | 1.93 ± 0.025 | 1.963 ± 0.018
7 | AGGGCG | 1.962 ± 0.008 | 2.02 ± 0.027
8 | AGGGCU | 2.022 ± 0.0078 | 2.05 ± 0.024
9 | AGGGCC | 2.07 ± 0.023 | 2.06 ± 0.06
10 | AGGGCA | 2.033 ± 0.02 | 2.03 ± 0.042
11 | CGGAUC | 2.085 ± 0.011 | 2.034 ± 0.003
12 | CGGAUU | 2.031 ± 0.015 | 2.02 ± 0.045
13 | CGGCUA | 2.11 ± 0.027 | 2.067 ± 0.011
14 | CGGCUG | 2.0746 ± 0.002 | 2.04 ± 0.027
15 | CGGCUU | 2.04 ± 0.04 | 2.02 ± 0.022
16 | GGGACC | 2.049 ± 0.0006 | 2.04 ± 0.024
17 | GGGACG | 2.039 ± 0.01 | 2.06 ± 0.051
18 | AGCUGG | 2.05 ± 0.0052 | 2.06 ± 0.031
19 | AGCUGA | 2.0496 ± 0.0016 | 2.028 ± 0.014
20 | AGCUGC | 2.038 ± 0.014 | 2.05 ± 0.022
21 | AGCUGU | 2.039 ± 0.012 | 2.032 ± 0.016
22 | AGCUCG | 1.99 ± 0.024 | 1.998 ± 0.0042
23 | AGCUCC | 2.095 ± 0.0069 | 2.04 ± 0.042
24 | AGCUCA | 2.07 ± 0.026 | 2.01 ± 0.04
25 | AGCUCU | 2.02 ± 0.039 | 2.055 ± 0.0097
26 | UGGAAA | 1.919 ± 0.0043 | 1.98 ± 0.028
27 | UGGAAU | 1.869 ± 0.0092 | 2 ± 0.024
28 | UGGAAC | 1.921 ± 0.0075 | 2 ± 0.035
29 | UGGCUA | 2.03 ± 0.013 | 2.05 ± 0.028

Reference: the supplement of paper PMC6757056
